Measurements reported in US12305177B2, “Methods and platforms for sustainable high yield terpenoid production” (Purdue Research Foundation, priority 2019, dated 2025).

How the values were obtained:
[1] = substrate: CC(C)=CCC/C(C)=C/CC/C(C)=C/CO[P@@](=O)(O)OP(=O)(O)O; experiment: purified protein, by the assay type; settings: 100 mM TAPS pH 8.5, 10 mM MgCl2, 37° C., means ± SD, n = 3, pH 8.5, 37.0 °C
[2] = substrate: CC(C)=CCOP(=O)(O)OP(=O)(O)O; experiment: purified protein, by the assay type; settings: 100 mM TAPS pH 8.5, 10 mM MgCl2, 37° C., means ± SD, n = 3, pH 8.5, 37.0 °C
[3] = substrate: CC(C)=CCOP(=O)(O)O; experiment: NtIPK kinetics, lactate dehydrogenase/pyruvate kinase coupled assay; assay type: biochemical; settings: other: substrate of N. tabacum IPK, pH 7.5, 30° C.
[4] = substrate: CC(C)=CCC/C(C)=C/COP(=O)(O)O; experiment: as above; assay type: biochemical; settings: other: substrate of N. tabacum IPK, pH 7.5, 30° C.
[5] = substrate: C=C(C)CCOP(=O)(O)O; experiment: purified protein, by the assay type; settings: other: substrate of N. tabacum IPK; pH 7.5, 30° C.; pH 7.5; 30.0 °C

B1: A. thaliana Nudx1 (Arabidopsis thaliana) (protein)
chain: MSTGEAIPRVAVVVFILNGNSILLGRRRSSIGNSTFALPGGHLEFGESFEECAAREVMEETGLKIEKMKLLTVTNNVFKEAPTPSHYVSVSIRAVLVDPSQEPKNMEPEKCEGWDWYDWENLPKPLFWPLEKLFGSGFNPFTHGGGD
**Q.** With B1 as the protein, how does the Km ([1]; other: substrate of AtNudx1) read?
**A.** 8.7 ± 1.6 µM

**Q.** What about the kcat ([1]; other: substrate of AtNudx1) of the same protein?
**A.** 1.35 ± 0.06 s⁻¹

**Q.** What about the kcat/Km ([1]; other: substrate of AtNudx1) of the same protein?
**A.** 1.6 × 10^5 ± 0.3 M^−1 s^−1

**Q.** And the Km ([2]; other: substrate of AtNudx1)?
**A.** 10.7 ± 1.8 µM

**Q.** And the kcat ([2]; other: substrate of AtNudx1)?
**A.** 1.7 ± 0.07 s⁻¹

**Q.** And the kcat/Km ([2]; other: substrate of AtNudx1)?
**A.** 1.6 × 10^5 ± 0.3 M^−1 s^−1

B2: A. thaliana Nudx3 (Arabidopsis thaliana) (protein)
chain: MAEEHFDVLTKSGEKTGVSKPRGEVHRDGDYHRAVHVWIFVETTQQLLLQLRSDDKDSWPGQWDISSAGHISAGDTSLLSAQRELEEELGVKLPKDAFEKIFVFLQECVTNDGKFINNEFNDVYLVTILHPIPLEAFTLQKEEVSAVKYVPYEEYRNFLSKEDPAYVPYDVNGEYGKLFDIIRQRCQVNTEARSLSLQKQLQRYSPVTLEAKLTELSEADQKALGLIVKAAKIMDDIFYEQVWNSNPALRDWLKDHANASKLDKLKWDYFTINKSPWSSLDENEAFLSTADSAVKLLPGATKAIAGWKGLEYRAAFPVTKPPGANFYPPDMDKMEFTLWLNGLTEEQKHAATGFFSVIKRRSEANLDASDHLASSTKKLPDSNSDLYSIPYSEIYRPFLKKASEFLQKAGDLVSSPSLKKLLHSKAEAFLSNEYYESDIAWMDLDSKLDITIGPYETYEDEIFGYKATFETFIGIRDDKATADLKLFGDNLKLLEDNLPLESVYKSTDVSAAPIRVIQLIYNSGDVKGPQTVAYNLPNDEKIVKDRGTSMVMLKNVQEAKFEHILKPIAEITISKEQRGLVDFDSFFTHTICHECCHGIGPHTITLPGGQTSTVRKELQEVHSAMEEAKADIVGLWALKFLITKGLLSKSMVESMYVSFLAGCFRSIRFGLTEAHGKGQALQFNYLYEKGAFVFHEDSTFSVDFAKIEGAVESLSHEILTIQGKGDKNAATLLLNKYCTITGPLKTALENLERVKVPVDISPTFPLAEALMN
**Q.** How did the Km ([1]; other: substrate of AtNudx3) turn out when B2 was run?
**A.** 58 ± 10 µM

**Q.** What about the kcat ([1]; other: substrate of AtNudx3) of the same protein?
**A.** 3.3 ± 0.3 s⁻¹

**Q.** What about the kcat/Km ([1]; other: substrate of AtNudx3) of the same protein?
**A.** 5.7 × 10^4 ± 0.5 M^−1 s^−1

**Q.** What about the Km ([2]; other: substrate of AtNudx3) of the same protein?
**A.** 44 ± 8 µM

**Q.** What about the kcat ([2]; other: substrate of AtNudx3) of the same protein?
**A.** 7.1 ± 0.3 s⁻¹

**Q.** And the kcat/Km ([2]; other: substrate of AtNudx3)?
**A.** 1.6 × 10^5 ± 0.3 M^−1 s^−1

B3: N. tabacum IPK (Nicotiana tabacum) (protein)
chain: MEQNKASAPVPPTKRVRCIVKLGGAAITCKNKLETIDEENLTEVSSQLRQALIPNSDSAKILGMDWSKRPGQSEPPSFVDEFSDQPVADSESFIVVHGAGSFGHFQASKSGVHKGGLSRPLVKAGFVATRISVTSLNLEIVRALAREGIPSIGMSPFSCGWSTCQRNMTEADISMVIKAIDAGFIPVLHGDAVLDTLQECTILSGDVIIRHLAAELKPEFVVFLTDVLGVYDRPPVEPGAVLIREIAVREDGSWSVVKPRLEDTSKPVEFTVAAHDTTGGMVTKITEAAMIAKLGIDVYITKVGAGRNGPLSESPEWNLERQHT
**Q.** What does the source list for B3?
**A.** Km [3]: 8.5 ± 2.3 µM; kcat [3]: 1.2 ± 0.06 s⁻¹; kcat/Km [3]: 140000 M⁻¹ s⁻¹; Km [4]: 100 ± 60 µM; kcat [4]: 0.0017 ± 0.0002 s⁻¹; kcat/Km [4]: 17 M⁻¹ s⁻¹; Km [5]: 4.0 ± 1.5 µM; kcat [5]: 0.93 s⁻¹; kcat/Km [5]: 230000 M⁻¹ s⁻¹
